The test system of one data set is heart. The note with it: 8 μg/kg, IV 24 hours after ligation, then every 24 hours for 4 days; cited from earlier work.
Data set [1] deals with LPS-induced hepatic injury (acute endotoxemia). The conditions noted are these: 150 μg/kg, IP; cited from earlier work.
In a further data set the test system is LPS-induced lung injury. The conditions noted are these: 200 mg/kg, IP; cited from earlier work.
A further data set concerns the target T1, hIL11Rα (Homo sapiens, UniProt Q14626).
T1 construct: purchased SinoBiological 10252-H08H
T1 sequence (Q14626 23-422): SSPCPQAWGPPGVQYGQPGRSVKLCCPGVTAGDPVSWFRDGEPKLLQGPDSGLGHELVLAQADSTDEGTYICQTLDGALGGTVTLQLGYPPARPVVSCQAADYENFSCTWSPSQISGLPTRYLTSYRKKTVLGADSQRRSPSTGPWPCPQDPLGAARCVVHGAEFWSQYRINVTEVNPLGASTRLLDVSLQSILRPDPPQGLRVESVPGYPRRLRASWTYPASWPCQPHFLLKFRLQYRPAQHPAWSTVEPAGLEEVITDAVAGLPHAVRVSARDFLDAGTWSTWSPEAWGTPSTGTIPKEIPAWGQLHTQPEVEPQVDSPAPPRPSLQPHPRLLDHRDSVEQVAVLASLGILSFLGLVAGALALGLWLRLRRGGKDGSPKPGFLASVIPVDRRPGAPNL
The note with it: rhIL11:hIL11Rα, reported previously, reconfirmed; cited from earlier work.

Data set [2] has as its system primary human hepatocytes. In words: IL11 stimulation of primary human hepatocytes: ERK, JNK, CASP3, PI staining. The format is cell-based. From the text:
PI^+ve cells were quantified with the flow cytometer (Fortessa, BD Biosciences) and analyzed with FlowJo version 7 software (TreeStar).

In another data set the test system is mouse hepatocytes. It is filed as cell-based. The note with it: 24 h. The source says: Mouse hepatocytes (ABC-TC3928, AcceGen Biotech) were maintained in mouse hepatocyte medium (ABC-TM3928, AcceGen Biotech) supplemented with 1% Penicillin-streptomycin.
The next data set concerns nephrotoxic nephritis. The conditions noted are these: 800-1360 μg/kg, IP 2 hours prior, then once daily for 6 days; cited from earlier work.
For a further data set, the target named is IL-11Rα. The conditions noted are these: low affinity; cited from earlier work.
Data set [3] concerns clonogenic cells in intestinal crypts. The conditions noted are these: 100 μg/kg, SC prior to and after cytotoxic exposure; cited from earlier work.
The test system of a further data set is kidney. The conditions noted are these: 100-1000 μg/kg, IP; 10 minutes prior to or 30-60 minutes following IR; cited from earlier work.
The test system of data set [4] is epithelial cell integrity. The conditions noted are these: oral 0.5 mg/kg/day, 12 days; cited from earlier work.

B1: rhIL11: Recombinant human IL11 (UniProtKB:P20809, Genscript) (protein)
chain: PGPPPGPPRVSPDPRAELDSTVLLTRSLLADTRQLAAQLRDKFPADGDHNLDSLPTLAMSAGALGALQLPGVLTRLRADLLSYLRHVQWLRRAGGSSLKTLEPELGTLQARLDRLLRRLQLLMSRLALPQPPPDPPAPPLAPPSSAWGGIRAAHAILGGLHLTLDWAVRGLLLLKTRL
Take B1: the post-MI scar volume result with heart is reported as “then consecutively every 24 hours for 4 days reduces post-MI”. The LPS-induced hepatic injury entry in [1] was “significant protective role in LPS-induced hepatic injury (acute”. Further, the “LPS-induced lung injury and lethality” value in the data set with LPS-induced lung injury is on record as “inflammatory activity that protects against LPS-induced lung”. Further, the Kd (as a rule, the free concentration of one partner at which half of the binding sites on the other are occupied at equilibrium, for simple one-to-one binding) in the data set with hIL11Rα was 50 nM; at IL-11Rα it was ~10 nM. For the same molecule, the “hepatocyte cell death, FACS (PI+ve cells)” value in [2] (24 h) is “dose-dependent IL11-induced hepatocyte cell death”. In data set [2] (time course), the “ERK and JNK activation, concurrent with CASP3 cleavage” value was “late (>6 h) and sustained ERK and JNK activation”. Also, in the data set with mouse hepatocytes, the “GSH levels in rmIL11 stimulated mouse cells” value is “clear, dose-dependent effects of rhIL11 in restoring GSH levels”. Besides, in the data set on nephrotoxic nephritis, the ECM deposition result is “nephrotoxic nephritis and then once daily for 6 days suppresses”. Further, in data set [3], the “clonogenic cells in intestinal crypts” value is on record as “cytotoxic exposure, protects clonogenic cells in intestinal crypts”. Moreover, the renoprotection result in the data set with kidney is “The authors conclude that IL11 is renoprotective based on pre-”. Moreover, the “epithelial cell integrity during cyclophosphamide chemotherapy” value in [4] is “The authors suggest that IL11 maintains epithelial cell integrity”.

The values above are taken from patent US11319368B2, “Treatment of hepatotoxicity with IL-11 antibody” (Singapore Health Services PTE LTD., priority 2019, dated 2022).
